Assay results as given in the DeepSol protein solubility set.

Test: soluble on expression in E. coli; label from the status in PepcDB or PDB records
With “MGHHHHHHSHTKSARVKGLSFHPKRPWILTSLHNGVIQLWDYRMCTLIDKFDEHDGPVRGIDFHKQQPLFVSGGDDYKIKVWNYKLRRCLFTLLGHLDYIRTTFFHHEYPWILSASDDQTIRVWNWQSRTCVCVLTGHNHYVMCAQFHPTEDLVVSASLDQTVRVWDISGLRKKNLSPGAVESDVRGITGVDLFGTTDAVVKHVLEGHDRGVNWAAFHPTMPLIVSGADDRQVKIWRMNESKAWEVDTCRGHYNNVSCAVFHPRQELILSNSEDKSIRVWDMSKRTG” the “soluble on expression in E. coli” value was “soluble”. With “HKEFAVTMRPTEASERCHLRGSYTLRAGESALELWGGPEPGTQLYDWPYRFLRRFGRDKVTFSFEAGRRCVSGEGNFEFETRQGNEIFLALEEAISAQKN” the “soluble on expression in E. coli” value was “soluble”. For “MGSDKIHHHHHHMTTQSFIATKEHRRFAEFADAVRRQHTIGICYGHAGIGKTLSAKRYANWHKAENLIEQWGPRDDADYQIYAALARARTVFYTPAVLTSPKQIHAELEHISTRVSICVDQHLEKIGKKTGPHTRTGKHVELLIIDESERLNATALELLRDRYDRDNIALILIGMPGIEKWFSRYAQLYSRVGFAHEYRPLAQEELNFVLERRWHKLGQTLDPEDFTDAQAIAAVARITRGNFRLIDRLFTQIERVMKINELSTITDDVIEAARSTLVIGIS”, the “soluble on expression in E. coli” value was “not soluble”. For “MKRTIQETPGPSSTTVPPPKKLNSQRNGSNLEPGSIYFTPIGGISVPRQESESSRSLDEILADIRPINSLHFSFMLDFEFLIGSYPPSLREYPITLVVGAPDAPDLLKCTKNQKLVTVVGASLPIPFGTHHTKMSILEDEDGRFHVIVSTANLVPDDWEFKTQQFYYNFGVKIASGTVPRSDFQDDLLEYLSMYRNQLDTWKQLLQKVDFSQISDRLIFSTPGYHTDPPTQRPGHPRLFRILSEKFPFDASYEHTERCTFVAQCSSIGSLGSAPINWFRGQFLQSLEGANPSPKQKPAKMYLVFPSVEDVRTSCQGYAGGCSVPYRNSVHARQKWLQGNMCKWRSNAKRRTNAVPHCKTYVKYDKKVAIWQLLTSANLSKAAWGEVSFNKSKNVEQLMIRSWEMGVLITDPSRFNIPFDYPLVPYSATDEPFVTDKKHEKPDILGCIWTPP”, the “soluble on expression in E. coli” value was “not soluble”. With “MSLYKDDSLTLHTDLYQINMMQVYFEQGIHNRHAVFEVYFRKEPFNNGYAVFAGLQRMVEYLEQFQFSETDLAYLEELGYPENFLTYLKELRLELTIRSAKEGDLVFANEPIVQVEGPLGQCQLVETALLNIVNFQTLIATKAARIRSVIEDEPLLEFGTRRAQELDAAIWGTRAAMIGGADATSNVRAGKRFDIPVSGTHAHALVQAYGNDYDAFMAYAKTHKDCVFLVDTYDTLKVGVPTAIRVAKEMGDKINFLGVRLDSGDLAYLSKTVRQQLDDAGFTEAKIYASNDLDENTILNLKMQKAKIDVWGVGTKLITAYDQPALGAVYKIVSIEQEDGSMRDTIKLSNNAEKVSTPGKKQVWRITSREKGKSEGDYITFTDINVNELTEIEMFHPTYTYIKKTVKEFDAIPLLVDIFVKGELVYQLPTLAEIKAYAKKEFDKLWDEYKRVLNPQDYPVDLARDVWQNKMALIDNIRKDAYGKSEEGHHHHHH” the “soluble on expression in E. coli” value was “soluble”. With “MGSDKIHHHHHHMIIHKFIIHVLDKNSDTPILNDFEGRVSQDMDLFFQKKISKVSRDNDIRTAVFNDYSNNLIKKCCEQIIYDESSFLNSSKEIAAYLFDVMKLNATLESCDLAICLYSQKDEKKVAILKLDYNKSYTHSIEFKDDKFNIQMSKNEINIQETKTIKIGAIIGLSGVNDEYHLKVLDKDAEKEEVNSKFVTEFLNATKVKDDKYRTKMFKTFVDAYIANLYSDMKQGEDVRSILLYMLREKQNLDINEFADKAIKDDLKDSFKDHAEEKGIESFNIDKKWVEKNLKNRHIKTDTGFEVKGKMDDFEDFMKYGIRHNGNGTVDIVIKNVNFYDEK” the “soluble on expression in E. coli” value was “not soluble”. With “MDFLSREGSPISAELWEKIDEAVVSAAKKILTGRRFISIYGPLGAGIQAINVDNISELDETEENISVIRGRTYRHIPLINEDFSLLWRDLEFSEQMGLPVDLSSASRAATQCALREDKLIFYGNDELGYKGLLTEDGIVKFPISNWSEGENPFKDISIGLAKFIENGIVGRKALVVSPNLFVQLQRIQPGTGTTEYDRINKLLDGNIFSTPVLKDDKAVLVCSEPQNIDLVIGQDMITSYLETKNLNHYFRIMETILLRIKNKKAVIVFD” the “soluble on expression in E. coli” value was “not soluble”. For “MSLRKNLEEEQRLIDAKKLSLVIDLDKTLIDTTEVRNRAEVDAIKKLDPAATEDDFFEFNMNQNLLIRYRPHVRQFLASIAPYFDMQIYTLASPAYAHAILSKIDPEDKLFKNRIFSRTAEDFAMIKEAMRNQTDIVNKKNIKKIFPYSDKLVLVLDDSPEVWFCDNNKLFKGLVQIKRYSYFTRQGPNSPPTVNPDYVNDDILIQMRSVLIDVHDMFYKNYDPEESHVIMTLHQRKAQVFEGKTFYFSGLSEDDTMTFTRLAEEFGALVVDSFTPYTTHIIVGEGGTDDQIQKAMEYRGVYIIYLKWLFECFIQYARIEESLYSIQGIPCPTEGHHHHHH”, the “soluble on expression in E. coli” value was “soluble”. In the case of “MSLSKEVVYVPTGSIAKERSIFFDLKHMDKLTDLVNSGSFSADSKIKSEASGNIRMDVILSADNKFAAVQLFQFVPYTYQPVTAVHYFTNDAAAAVAAFLTKSQLNEGHHHHHH”, the “soluble on expression in E. coli” value was “soluble”. With “MKDSLQTIGVFVRPTHYQNPLFEKLEQAKEWVLKLLEDEGFESFMIDSLDGAKDARLIEKADAFLCLGGDGTILGALRMTHSYNKPCFGVRIGNLGFLSAVELNGLKDFLQDFKQDRIKLEEHLALEGRIGKTSFYAINEIVIAKKKALGVLDIKAYAGHTPFNTYKGDGLIIATPLGSTAYNLSAHGPIVHALSQSYILTPLCDFSLTQRPLVLGAEFCLNFCAHEDALVVIDGQATYDLKANQPLYIQKSPTTTKLLQKNSRDYFKVLKEKLLWGESPSKKRLEHHHHHH” the “soluble on expression in E. coli” value was “soluble”. In the case of “MAKVVSKANQSQGMLMFKLTLQQNFAIGTLKVREIVPYMPTTKIPYSHHHVIGTVTIRDLTVPVIDMSAAVGFRPITQEEYKNCYLIVTDCLRTVVAFMVRSIEKIIECDWKAIETPPASAGKNIFVTGITRYGDQTVQMLDVELLLSKIYPQYENANIPMLTDVERERLKA”, the “soluble on expression in E. coli” value was “not soluble”. With “MAPRDIRPGAEYGDIIEEAIVTCKVFLIVFSETSQISRWVRSELNIGFSSNKPIIPFRIDPTDLKGSMKLMLNDKHWLNAYPNPEEKFSELAAVILDLLQHPAVDTISPPGFQPASNVASADGSNAGAQGLFGKLLNQLFVKRRVKVTSDHAAEIFLNGERKGKLDAYETGNYSVSEDFYQLEVYSCEYGKKVKCEYSGSFSNSSTVIISVDMATAEKQYLMKAKNITSGQINDLGIIFLDEGKFEDAQECFLKAASMGEAAAAYNLGMMYHFGKGVEIDYDVAREYYEEAVKSDYPLALNNLGSIYYNGHGVRKDIAKSFPYFCRAAERGVESAQFTVATMLFYGQGVAVDKAKAKKWFQKAAAQGCKDSQNYLNSWVDD” the “soluble on expression in E. coli” value was “not soluble”. In the case of “MGSDKIHHHHHHMTTNKEQYKVHQEPYYQAQGREVQLYEAAYRNRLPVMVKGPTGCGKSRFVEYMAWKLNKPLITVACNEDMTASDLVGRYLLEANGTRWLDGPLTTAARIGAICYLDEVVEARQDTTVVIHPLTDHRRTLPLDKKGELIEAHPDFQLVISYNPGYQSLMKDLKQSTKQRFAAFDFDYPDAALETTILARETGLDETTAGRLVKIGGVARNLKGHGLDEGISTRLLVYAATLMKDGVDAGDACRMALVRPITDDADIRETLDHAIDATFA”, the “soluble on expression in E. coli” value was “not soluble”. For “MTVDDIMVPRSEIIGIDINDDWKSILRQLSHSPHGRIVLYRDSLDDAISMLRVREAWRLMSEKKEFTKETMLRAADEIYFVPEGTPLSTQLVKFQRNKKKVGLVVNEYGDIQGLVTVEDILEEIVGDFTTSMSPTLAEEVTPQNDGSVIIDGTANVREINKAFNWHLPEDDARTVNGVILEALEEIPVAGTRVRIGEYDIDILDVQDNMIKQVKVFPVKPLRESVAELEHHHHHH”, the “soluble on expression in E. coli” value was “soluble”. With “MSLYPEKRDGFSRTGKFEVEGRTVQTPAILEVGEIPEWDFGLAPTSLKFISEELYSRLRPINEEVEILTSLHLLSPRQLVQVFEDLSKEGVSPKPLYAASSALPSNVSLLIYLGADLVDNVLAIAKAYSGIYFLGEVEVEISKLRRLPCNCIHCRNRVVDEVENLLETTAKHNTEMLRMEVEKCRRLILNEELRNYVEGKVKLNPEFTAALRLSDSLRNHSTFPRFRKSRCNFSALESSSRFEVRYFFERALECYKPFSDTVLLLPCTARKPYLTSRTHRALRSKVKVNVNEIIISSPLVVPREFELLYPAVNYDTPVTGHWSEEEVSFVAGWLKRFIEKGGFRKVVAHVTGGYRKVVERVEDEVEAEVVYTAEKDVLSDESIERLKQEIESKGKVDLYRRILEHMLSYQFGITWSGKVAGRYPELELLEGKKRLARVDRIYGMLDIYEKIAAYLLEKNIYTVEIGDFEVKGTIFAGGVLRADEKIRPNDVVVFHNSRIFGVGLAAMSGKEMAGSEKGIAINVKRKFSEGHHHHHH” the “soluble on expression in E. coli” value was “soluble”. In the case of “MYGKLNDLLEDLQEVLKHVNQHWQGGQKNMNKVDHHLQNVIEDIHDFMQGGGSGGKLQEMMKEFQQVLDEIKQQLQGGDNSLHNVHENIKEIFHHLEELVHR”, the “soluble on expression in E. coli” value was “soluble”. In the case of “MPVSGYLRIKGKRVGVEIFPFQAYHSQIKEVRQQVGNMAILPLRTQVRGPAPSANIESDIIDESLYYFKANVFFRTYEIKSDVDRVLIYVTLYITECLKKLNRSTSKAQGQQDMYSLAISKFDIPGDAGFPLNAVYAKPQTAQDADLMRQYLLQLRHETGNRVLEKVFNTEDGKPNKWWTCFAKKKFMEKSLAGPGQLEHHHHHH”, the “soluble on expression in E. coli” value was “not soluble”. For “MGHHHHHHSHMFFKQFYDKHLSQASYLIGCQKTGEAMIIDPIRDLSSYIRVADEEGLTITHAAETHIHADFASGIRDVAIKLNASIYVSGESDDTLGYKNMPNQTHFVQHNDDIYVGNIKLKVLHTPGHTPESISFLLTDEGAGAQVPMGLFSGDFIFVGDIGRPDLLEKAVKVEGSSEIGAKQMFKSIESIKDLPNYIQIWPGHGAGSPCGKSLGAIPTSTLGYEKQTNWAFSENNEATFIDKLISDQPAPPHHFAQMKKINQFGMNLYQPYTVYPATNTNRLTFDLRSKEAYHGGHIEGTINIPYDKNFINQIGWYLNYDQEINLIGEYHLVSKATHTLQLIGYDDVAGYQLPQSKIQTRSIHSEDITGNESHILDVRNDNEWNNGHLSQAVHVPHGKLLETDLPFNRNDVIYVHCQSGIRSSIAIGILEHKGYHNIINVNEGYKDIHLS”, the “soluble on expression in E. coli” value was “not soluble”. For “MGICVVIPAFNAALTIEAVVRETLEQGLPLVVVDDGSEDGTADCVRGLPVNLVSHGRNRGKGAALKTGFAWALEYGFSGVITLDSDGQHDPTAITLLAETAKNDGWDILVASRFAQFNQMAGLRRHWNRFGAWCMKKRTGFQIDDSQSGFRYYSARLLRMVSLGKDGYDLEMEILMKAWQAGCTIGSVPVPARVADGRATSHFRPVRDTWNICMTFLRYMLEHHHHHH”, the “soluble on expression in E. coli” value was “not soluble”. For “GMSRAPDTWILTADCPSMLGTVDVVTRYLFEQRCYVTEHHSFDDRQSGRFFIRVEFRQPDDFDEAGFRAGLAERSEAFGMAFELTAPNHRPKVVIMVSKADHCLNDLLYRQRIGQLGMDVVAVVSNHPDLEPLAHWHKIPYYHFALDPKDKPGQERKVLQVIEETGAELVILARYMQVLSPELCRRLDGWAINIHHSLLPGFKGAKPYHQAYNKGVKMVGATAHYINNDLDEGPIIAQGVEVVDHSHYPEDLIAKGRDIECLTLARAVGYHIERRVFLNANRTVVL”, the “soluble on expression in E. coli” value was “soluble”. With “MGSDKIHHHHHHMVNSLTTPEPQTLKPGVKAPVQETLLTPRFYTTDFDAVANLDISANEAEIRAVVEELRADYNRHHFVRDEEFKQSWDHITGEKRRAFIDFLERSCTSEFSGFLLFKELSRRIKSRNPLLAEAFEFMARDEARHAGFLNKSMSDLNLSLDLNYLTKNRTYTFFPPEWVIYTVYLSEKIGYWRYILVHQHMQEHPEYQFYPLFRKFESWCQDENRHGDFFKALLRSQPQLWKNWKARLWVRFFLLTVFVTHTMTVFERASFYESIGIHPRKYNNRVIQETNNTSARAFPLILNTNHPLFFWRLEQCWENNMKLAAIKNNKLPNFVKFFQRIPPATAIFWNMLRLFLIKPIDTEATRGTVL” the “soluble on expression in E. coli” value was “not soluble”.
